# Source: article PMC3693578 (Molecular cell, 2012)
# B1: TSC2 (tuberin), endogenous human (natural protein)
# chain: not shown
# Biological target: T1, TSC1 (hamartin), endogenous human (human (endogenous in HeLa), UniProt Q92574 1-1164)
# T1 sequence (looked up): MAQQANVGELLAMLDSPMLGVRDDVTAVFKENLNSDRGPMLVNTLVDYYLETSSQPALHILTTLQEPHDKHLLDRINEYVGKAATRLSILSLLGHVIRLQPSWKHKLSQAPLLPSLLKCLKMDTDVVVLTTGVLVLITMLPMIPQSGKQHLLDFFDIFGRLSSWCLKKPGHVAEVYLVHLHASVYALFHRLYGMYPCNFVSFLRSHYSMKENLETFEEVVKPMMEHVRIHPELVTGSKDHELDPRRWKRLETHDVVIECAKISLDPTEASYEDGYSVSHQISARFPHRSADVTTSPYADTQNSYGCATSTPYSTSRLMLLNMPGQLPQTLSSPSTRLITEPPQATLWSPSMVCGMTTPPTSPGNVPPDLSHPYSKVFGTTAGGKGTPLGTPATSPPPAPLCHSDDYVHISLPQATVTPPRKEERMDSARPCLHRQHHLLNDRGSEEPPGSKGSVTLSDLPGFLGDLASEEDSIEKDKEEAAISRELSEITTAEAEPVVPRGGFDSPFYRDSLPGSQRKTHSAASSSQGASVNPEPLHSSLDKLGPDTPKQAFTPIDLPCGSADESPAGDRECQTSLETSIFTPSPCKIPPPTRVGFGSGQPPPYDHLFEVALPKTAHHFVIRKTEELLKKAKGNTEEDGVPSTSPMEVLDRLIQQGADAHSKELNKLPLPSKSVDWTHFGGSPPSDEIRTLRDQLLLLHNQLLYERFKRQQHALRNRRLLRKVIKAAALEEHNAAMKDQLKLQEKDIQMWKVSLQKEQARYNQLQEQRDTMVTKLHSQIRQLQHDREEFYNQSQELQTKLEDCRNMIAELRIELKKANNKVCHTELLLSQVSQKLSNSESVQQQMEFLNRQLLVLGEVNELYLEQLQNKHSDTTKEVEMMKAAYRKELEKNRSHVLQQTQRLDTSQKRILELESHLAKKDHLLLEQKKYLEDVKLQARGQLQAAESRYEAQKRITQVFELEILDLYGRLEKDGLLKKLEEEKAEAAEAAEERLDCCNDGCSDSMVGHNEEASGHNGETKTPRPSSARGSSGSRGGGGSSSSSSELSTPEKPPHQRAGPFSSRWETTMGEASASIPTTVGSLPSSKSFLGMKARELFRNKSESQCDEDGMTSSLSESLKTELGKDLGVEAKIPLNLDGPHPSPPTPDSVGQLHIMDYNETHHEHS
# Assay: affinity purification with mass spectrometry
binder,measurement,value
B1,stoichiometry N,~1
